According to patent US20240384250A1, “FIBROBLAST GROWTH FACTOR 23 MODULATING COMPOUNDS” (THE UAB RESEARCH FOUNDATION, priority 2021, published 2024):
“Also recorded” adds a separate entry of the source.

Experiments:
[1] = test system: phosphorylated ERK in HEK293T cells; test: ERK phosphorylation in serum-starved HEK293 cells (Western blotting); type: cell-based, human
Method: The sample (20 μl) was loaded onto Mini-PROTEAN TGX Precast Gel 4-20% for experiments with <9 samples (4568094, Bio-Rad) or Criterion TGX Precast Gel 4-20% (5678094, Bio-Rad) for experiments with >9 samples. Gels were run in 1× Tris/Glycine/SDS buffer (1610732, Bio-Rad) at 150 V and stopped when the sample dye reached the end of the gel. Gels were removed and electrotransferred via a semi-dry cassette (1703940, Bio-Rad) in I× Tris/Glycine buffer (1610734, Bio-Rad) with 20% methanol. Gels were transferred onto polyvinylidene diflouride membranes (IPVH00010, Millipore) at 20 V for 1 hour. Membranes were then blocked in 5% dried milk with 0.5% Tween 20 diluted in Tris-buffered saline (TBST; pH 7.5) for 1 hour and probed with antibodies against specific antigens at 1:1000 in TBST with 5% dried milk. Blots were washed 3× for 5 minutes in TBST and probed with HRP-coupled secondary antibodies against specific species at 1:10,000 in TBST with 5% dried milk. Membranes were imaged on the SRX-101A X-ray film developer (Konica Minolta).
To determine the cellular activity of paracrine FGFs, the activation/phosphorylation of ERK in HEK293 cells after treatment was studied. HEK293 cells were seeded in 6-well plates in DMEM (26140079, Gibco) supplemented with I× Pen/Strep (15140122, Gibco) and 10% FBS (26140079, Gibco) and grown for 48 hours. Upon reaching 80% confluence, cells were serum starved overnight in DMEM and 1× Pen/Strep without FBS. The medium was changed, and cells were treated with sKL at 2 μg/ml or vehicle (sKL elution buffer: 25 mM Tris ph 8.0, 500 mM NaCl) for 15 minutes. Cells were then treated with various FGFs at 1.1 nM for 10 minutes. Cells were lysed in 200 μl of RIPA with the addition of a protease inhibitor (11836153001, Roche) and phosphatase inhibitors (P5726 and P0044, Sigma-Aldrich) for 30 minutes. The mixture was then centrifuged at 20,000 g for 60 minutes to remove all cell debris. One hundred microliters of 1× Laemmli sample buffer (1610737, Bio-Rad) with 1.42 M 2-mercaptoethanol was added, and samples were boiled for 5 minutes. Twenty microliters of samples was loaded onto 12% SDS-PAGE gels and analyzed using Western blotting for total and phosphorylated ERK.

[2] = test system: neonatal rat ventricular myocytes; test: Hypertrophic growth of isolated neonatal rat ventricular myocytes (cell area); type: cell-based
Method: Neonatal rat ventricular myocytes (NRVMs) were isolated using a kit according to the manufacturer's protocol (LK003300, Worthington Biochemical Corporation), as done previously.^13,16,17 Briefly, hearts from 1- to 3-day-old Sprague Dawley rats (Envigo) were harvested and minced in calcium- and magnesium-free Hanks balanced salt solution and the tissue was digested with 50 μg/ml of trypsin at 4° C. for 20 to 24 hours. Soybean trypsin inhibitor in Hanks balanced salt solution was added, and the tissue was further digested with collagenase (in Leibovitz L-15 medium) under slow rotation (0.14 g) at 37° C. for 45 minutes. Cells were broken up by triturating the suspension 20× with a standard 10-ml plastic serological pipette. Cells were then filtered through a cell strainer (70 μm, BD Falcon). Cells were incubated at room temperature for 20 minutes and spun at 100 g for 5 minutes. The cell pellet was resuspended in plating medium (DMEM Base [10013CV, Corning], 17% M199 [12350039, Gibco], 15% FBS [26140079, Gibco], I× Pen/Strep [15140122, Gibco]). For cell tracings, NRVMs were grown in 24-well plates on glass coverslips (CLS1760012, Chemglass). Slips were precoated with laminin (23017015, Invitrogen) at 10 μg/ml for 1 hour at 37° C. dissolved in PBS. Laminin was aspirated, and cells and medium were added. Cells were counted by a hemocytometer and plated at 4×10^5 cells per well. […] After 48 hours, maintenance medium was replaced, and after another 48 hours, cells were ready for treatment, giving a total of 72 hours of plating medium and 96 hours of maintenance medium before treatment. […]
The medium was aspirated, and cultured NRVMs were fixed in 2% paraformaldehyde (P-6148, Sigma-Aldrich) and 4% sucrose dissolved in PBS for 5 minutes followed by permeabilization with 1% Triton X-100 dissolved in PBS for 10 minutes. […] The cross-sectional area of myocytes was measured on the basis of α-actinin-positive staining using ImageJ software (v1.53, National Institutes of Health). […]

Row | Molecule | ERK phosphorylation induced by FGF ([1]; FGF 1.1 nM for 10 minutes, absence of sKL) | cell area ([2]; FGF23 alone, 48 hours) | phospho-ERK levels in cells treated with FGF2 ([1]; sKL 2 μg/ml 15 minutes before FGF2) | phospho-ERK levels in cells treated with FGF5 ([1]; sKL 2 μg/ml 15 minutes before FGF5) | ERK phosphorylation in cells incubated with FGF23 ([1]; sKL 2 μg/ml 15 minutes before FGF23) | phospho-ERK levels in cells treated with FGF8b ([1]; sKL 15 minutes before FGF8b) | FGF23-induced hypertrophy (increase in cell area) ([2]; cotreatment with FGF23 25 ng/ml, 48 hours, sKL 100 ng/ml, anti-FGF23 1 μg/ml) | NRVM area, treatment by itself ([2]; without FGF23, 48 hours)
1 | FGF23: recombinant fibroblast growth factor 23 protein from R&D Systems (protein) YPDTSPLLGSNWGSLTHLYTATARTSYHLQIHRDGHVDGTPHQTIYSALMITSEDAGSVVITGAMTRRFLCMDLHGNIFGSLHFSPENCKFRQWTLENGYDVYLSQKHHYLVSLGRAKRIFQPGTNPPPFSQFLARRNEVPLLHFYTVRPRRHTRSAEDPPERDPLNVLKPRPRATPVPVSCSRELPSAEEGGPAASDPLGVLRRGRGDARGGAGGADRCRPFPRFV | had no effect | induced hypertrophic growth; also recorded: increase in cell area; also recorded: stepwise elevation in the cell area | – | – | – | – | – | –
2 | sKL: recombinant soluble α-klotho ectodomain, mouse aa 35-982 and human aa 34-981, FLAG- or Strep/His-tagged, purified from HEK293 cells (protein, left off: small tags and cut ends, recombinant soluble α-klotho ectodomain, mouse aa 35-982 and human aa 34-981, FLAG- or Strep/His-tagged, purified from HEK293 cells) EPGDGAQTWARFSRPPAPEAAGLFQGTFPDGFLWAVGSAAYQTEGGWQQHGKGASIWDTFTHHPLAPPGDSRNASLPLGAPSPLQPATGDVASDSYNNVFRDTEALRELGVTHYRFSISWARVLPNGSAGVPNREGLRYYRRLLERLRELGVQPVVTLYHWDLPQRLQDAYGGWANRALADHFRDYAELCFRHFGGQVKYWITIDNPYVVAWHGYATGRLAPGIRGSPRLGYLVAHNLLLAHAKVWHLYNTSFRPTQGGQVSIALSSHWINPRRMTDHSIKECQKSLDFVLGWFAKPVFIDGDYPESMKNNLSSILPDFTESEKKFIKGTADFFALCFGPTLSFQLLDPHMKFRQLESPNLRQLLSWIDLEFNHPQIFIVENGWFVSGTTKRDDAKYMYYLKKFIMETLKAIKLDGVDVIGYTAWSLMDGFEWHRGYSIRRGLFYVDFLSQDKMLLPKSSALFYQKLIEKNGFPPLPENQPLEGTFPCDFAWGVVDNYIQVDTTLSQFTDLNVYLWDVHHSKRLIKVDGVVTKKRKSYCVDFAAIQPQIALLQEMHVTHFRFSLDWALILPLGNQSQVNHTILQYYRCMASELVRVNITPVVALWQPMAPNQGLPRLLARQGAWENPYTALAFAEYARLCFQELGHHVKLWITMNEPYTRNMTYSAGHNLLKAHALAWHVYNEKFRHAQNGKISIALQADWIEPACPFSQKDKEVAERVLEFDIGWLAEPIFGSGDYPWVMRDWLNQRNNFLLPYFTEDEKKLIQGTFDFLALSHYTTILVDSEKEDPIKYNDYLEVQEMTDITWLNSPSQVAVVPWGLRKVLNWLKFKYGDLPMYIISNGIDDGLHAEDDQLRVYYMQNYINEALKAHILDGINLCGYFAYSFNDRTAPRFGLYRYAADQFEPKASMKHYRKIIDSNGFPGPETLERFCPEEFTVCTECSFFHTRKS | – | – | decreased phospho-ERK levels; also recorded: did not occur | decreased phospho-ERK levels; also recorded: did not occur | induced ERK phosphorylation; also recorded: increased pERK levels | did not occur | FGF23 did not induce hypertrophy; also recorded: blocked this effect | no effect
